Measurements: paper PMC3103603 (Immunity, 2011)

Target: T1, wild-type human B7-H2Ig fusion protein (human, UniProt O75144 19-256)
T1 sequence (looked up): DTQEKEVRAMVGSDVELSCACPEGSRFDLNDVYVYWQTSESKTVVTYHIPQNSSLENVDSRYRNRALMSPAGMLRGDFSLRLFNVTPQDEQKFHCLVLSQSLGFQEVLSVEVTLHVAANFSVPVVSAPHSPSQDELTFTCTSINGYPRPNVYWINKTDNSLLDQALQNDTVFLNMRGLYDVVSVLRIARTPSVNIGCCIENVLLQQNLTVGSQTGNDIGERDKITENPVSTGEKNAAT
Assay: flow cytometry on cells

- binding result: binds
B1: human ICOSIg fusion protein (Fc fusion, UniProt Q9Y6W8 21-140, looked up)
chain: EINGSANYEMFIFHNGGVQILCKYPDIVQQFKMQLLKGGQILCDLTKTKGSGNTVSIKSLKFCHSQLSNNSVSFFLYNLDHSHANYYFCNLSIFDPPPFKVTLTGGYLHIYESQLCCQLK
